{"source": "paper doi:10.1101/2024.12.23.630100", "about": "(bioRxiv, 2024)", "key": {"[1]": {"target": "T1, SHP2 tandem domain N-SH2-C-SH2-SHP2 1-222 (human, UniProt Q06124 1-222)", "T1 sequence (looked up)": "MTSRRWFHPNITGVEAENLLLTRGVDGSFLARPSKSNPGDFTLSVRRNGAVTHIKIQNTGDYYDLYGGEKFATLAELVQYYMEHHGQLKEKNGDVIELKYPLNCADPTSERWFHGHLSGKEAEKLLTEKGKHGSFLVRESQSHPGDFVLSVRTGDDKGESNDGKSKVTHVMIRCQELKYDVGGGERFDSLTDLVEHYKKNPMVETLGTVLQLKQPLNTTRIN", "experiment": "ITC"}, "[2]": {"target": "T2, SHP2 C-SH2 domain 102-220 (human, UniProt Q06124 102-220)", "T2 sequence (looked up)": "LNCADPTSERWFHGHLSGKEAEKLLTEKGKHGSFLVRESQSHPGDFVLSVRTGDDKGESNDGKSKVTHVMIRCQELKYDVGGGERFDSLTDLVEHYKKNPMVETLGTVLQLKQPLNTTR", "experiment": "ITC"}}, "note": "Square brackets hold non-standard residues; d marks the D form. Ends that are not written are not given here. pY = N[C@@H](Cc1ccc(OP(=O)(O)O)cc1)C(=O)O", "data": [{"binder": "pY627pY659-Gab1 613-694 (bis-phosphorylated fragment of Grb2-associated binding protein 1) (peptide, UniProt Q13480 613-694, looked up, phosphotyrosine at 627 and 659) SSPMIKPKGDKQVEYLDLDLDSGKSTPPRKQKSSGSGSSVADERVDYVVVDQQKTLALKSTREAWTDGRQSTESETPAKSVK", "values": [{"measurement": "Kd", "setting": "[1]", "value": "37 ± 13", "unit": "nM"}]}, {"binder": "ERVD[pY]VVVDQQKTLALKSTREAW (peptide, UniProt Q13480 655-677, looked up)", "note": "[pY659-Gab1 655-677 monophosphorylated peptide]", "values": [{"measurement": "Kd", "setting": "[2]", "value": 4, "unit": "µM"}]}, {"binder": "ERVD[pY]VVVDQQK (peptide, UniProt Q13480 655-666, looked up)", "note": "[pY659-Gab1 655-666 monophosphorylated peptide (C-terminally truncated)]", "values": [{"measurement": "fold reduction of affinity against pY659-Gab1 655-677", "setting": "[2]", "value": 10, "unit": "fold"}]}]}
